Data as given in the supplement of paper PMC9112550, “Optimization of the antimicrobial peptide Bac7 by deep mutational scanning” (BMC Biology, 2022).

Tested on: Escherichia coli TOP10
Test: shrunken log2 fold change of peptide-encoding DNA abundance (4.5 h post-induction vs induction); higher = less antimicrobial activity (less host growth inhibition)
Settings: time post-induction: 4.5 h; library: site-saturation at positions 5, 18, 19, 20
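Note: peptides expressed intracellularly from a pBAD plasmid library in pooled LB shake-flask culture, induced with 0.3% L-arabinose, DNA abundance read by NGS, three biological replicates, DESeq2 with apeglm shrinkage.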

| Sequence | shrunken log2 fold change |
| --- | --- |
| RRIRDRPPRLPRPRPRPKFFPRP | 0.136 |
| RRIRKRPPRLPRPRPRPNSQPRP | 0.27 |
| RRIRQRPPRLPRPRPRPMEDPRP | -0.00192 |
| RRIRCRPPRLPRPRPRPYDFPRP | -0.894 |
| RRIRYRPPRLPRPRPRPTRRPRP | 0.358 |
| RRIRWRPPRLPRPRPRPCSQPRP | 0.0161 |
| RRIRWRPPRLPRPRPRPHNYPRP | -0.267 |
| RRIRERPPRLPRPRPRPKRDPRP | 0.024 |
| RRIRGRPPRLPRPRPRPWQNPRP | 0.041 |
| RRIRLRPPRLPRPRPRPPQAPRP | 0.872 |
| RRIRTRPPRLPRPRPRPHDAPRP | -0.0483 |
| RRIRKRPPRLPRPRPRPRYIPRP | -0.268 |
| RRIRQRPPRLPRPRPRPDQTPRP | -0.0116 |
| RRIRMRPPRLPRPRPRPEPRPRP | 1.5 |
| RRIRIRPPRLPRPRPRPQQGPRP | -0.295 |
| RRIRHRPPRLPRPRPRPALVPRP | -0.0926 |
| RRIRKRPPRLPRPRPRPKDGPRP | 0.0893 |
| RRIRPRPPRLPRPRPRPLADPRP | 0.188 |
| RRIRQRPPRLPRPRPRPCAYPRP | -0.0948 |
| RRIRDRPPRLPRPRPRPCDIPRP | -0.11 |
| RRIRERPPRLPRPRPRPEWRPRP | 0.334 |
| RRIRKRPPRLPRPRPRPRDLPRP | 0.255 |
| RRIRWRPPRLPRPRPRPYDKPRP | -0.534 |
| RRIRKRPPRLPRPRPRPRGGPRP | 0.848 |
| RRIRHRPPRLPRPRPRPYGSPRP | -0.0135 |

| Sequence | shrunken log2 fold change |
| --- | --- |
| RRIRCRPPRLPRPRPRPDRCPRP | 0.16 |
| RRIRARPPRLPRPRPRPIIYPRP | -0.249 |
| RRIRGRPPRLPRPRPRPTMSPRP | 0.496 |
| RRIRKRPPRLPRPRPRPCEKPRP | 0.492 |
| RRIRQRPPRLPRPRPRPYIRPRP | -0.197 |
| RRIRKRPPRLPRPRPRPREPPRP | 1.39 |
| RRIRNRPPRLPRPRPRPICKPRP | 0.0454 |
| RRIRTRPPRLPRPRPRPRCPPRP | 0.0716 |
| RRIRDRPPRLPRPRPRPWGNPRP | -0.0163 |
| RRIRIRPPRLPRPRPRPVEWPRP | 0.0101 |
| RRIRVRPPRLPRPRPRPKSDPRP | -0.142 |
| RRIRYRPPRLPRPRPRPIFIPRP | -0.631 |
| RRIRHRPPRLPRPRPRPCNHPRP | -0.292 |
| RRIRFRPPRLPRPRPRPYDHPRP | -0.0263 |
| RRIRKRPPRLPRPRPRPEVAPRP | 1.9 |
| RRIRYRPPRLPRPRPRPTMHPRP | -0.484 |
| RRIRSRPPRLPRPRPRPRWCPRP | 0.051 |
| RRIRPRPPRLPRPRPRPCAAPRP | 0.888 |
| RRIRIRPPRLPRPRPRPFCIPRP | -0.581 |
| RRIRWRPPRLPRPRPRPTKIPRP | 0.0922 |
| RRIRHRPPRLPRPRPRPSSRPRP | -0.175 |
| RRIRARPPRLPRPRPRPQVSPRP | -0.156 |
| RRIRYRPPRLPRPRPRPYWFPRP | -0.142 |
| RRIRKRPPRLPRPRPRPCGQPRP | 0.0682 |
| RRIRGRPPRLPRPRPRPPIPPRP | 0.449 |

| Sequence | shrunken log2 fold change |
| --- | --- |
| RRIRKRPPRLPRPRPRPYVFPRP | -0.0884 |
| RRIRTRPPRLPRPRPRPIRDPRP | -0.288 |
| RRIRMRPPRLPRPRPRPNEKPRP | 0.0356 |
| RRIRQRPPRLPRPRPRPIERPRP | -0.0353 |
| RRIRVRPPRLPRPRPRPSIKPRP | -0.552 |
| RRIRFRPPRLPRPRPRPSYYPRP | -1.07 |
| RRIRMRPPRLPRPRPRPEWNPRP | 0.406 |
| RRIRDRPPRLPRPRPRPWYMPRP | -0.315 |
| RRIRCRPPRLPRPRPRPKHYPRP | -0.518 |
| RRIRHRPPRLPRPRPRPGRVPRP | -0.129 |
| RRIRCRPPRLPRPRPRPGMRPRP | 0.532 |
| RRIRARPPRLPRPRPRPPPKPRP | 1.29 |
| RRIRFRPPRLPRPRPRPCEDPRP | -0.13 |
| RRIRERPPRLPRPRPRPWMCPRP | -0.11 |
| RRIRMRPPRLPRPRPRPHGLPRP | 0.0212 |
| RRIRCRPPRLPRPRPRPGLKPRP | -0.113 |
| RRIRVRPPRLPRPRPRPWFEPRP | -0.313 |
| RRIRLRPPRLPRPRPRPDIHPRP | 0.126 |
| RRIRDRPPRLPRPRPRPRANPRP | 0.567 |
| RRIRERPPRLPRPRPRPVWAPRP | 0.0658 |
| RRIRCRPPRLPRPRPRPYNKPRP | -1.02 |
| RRIRWRPPRLPRPRPRPECPPRP | 0.341 |
| RRIRDRPPRLPRPRPRPRAYPRP | -0.212 |
| RRIRDRPPRLPRPRPRPQDRPRP | -0.0933 |
| RRIRWRPPRLPRPRPRPYNEPRP | -0.13 |

| Sequence | shrunken log2 fold change |
| --- | --- |
| RRIRLRPPRLPRPRPRPDHVPRP | -0.00963 |
| RRIRGRPPRLPRPRPRPQAFPRP | 0.112 |
| RRIRDRPPRLPRPRPRPAEQPRP | 0.0426 |
| RRIRQRPPRLPRPRPRPYFLPRP | -0.923 |
| RRIRHRPPRLPRPRPRPRLGPRP | 0.143 |
| RRIRQRPPRLPRPRPRPHSLPRP | 0.178 |
| RRIRKRPPRLPRPRPRPRMHPRP | 0.557 |
| RRIRFRPPRLPRPRPRPQWDPRP | -0.272 |
| RRIRKRPPRLPRPRPRPTDIPRP | -0.0678 |
| RRIRLRPPRLPRPRPRPKYLPRP | -0.55 |
| RRIRKRPPRLPRPRPRPSCQPRP | 0.176 |
| RRIRPRPPRLPRPRPRPYRMPRP | 0.0542 |
| RRIRHRPPRLPRPRPRPIIFPRP | -0.249 |
| RRIRDRPPRLPRPRPRPTDVPRP | -0.0358 |
| RRIRERPPRLPRPRPRPVWCPRP | -0.156 |
| RRIRKRPPRLPRPRPRPKDIPRP | -0.261 |
| RRIRHRPPRLPRPRPRPMFCPRP | 0.0621 |
| RRIRFRPPRLPRPRPRPKKIPRP | -0.028 |
| RRIRSRPPRLPRPRPRPSYYPRP | -0.529 |
| RRIRMRPPRLPRPRPRPTEYPRP | -0.289 |
| RRIRVRPPRLPRPRPRPMPHPRP | -0.227 |
| RRIRMRPPRLPRPRPRPKYYPRP | -0.0662 |
| RRIRKRPPRLPRPRPRPCRYPRP | -0.00884 |
| RRIRERPPRLPRPRPRPYVLPRP | -0.125 |
| RRIRERPPRLPRPRPRPQPHPRP | -0.261 |

| Sequence | shrunken log2 fold change |
| --- | --- |
| RRIRPRPPRLPRPRPRPDKDPRP | -0.173 |
| RRIRQRPPRLPRPRPRPCRYPRP | -0.167 |
| RRIRYRPPRLPRPRPRPFNQPRP | -0.0309 |
| RRIRDRPPRLPRPRPRPRDQPRP | 0.477 |
| RRIRDRPPRLPRPRPRPYEPPRP | -0.017 |
| RRIRKRPPRLPRPRPRPWSFPRP | 0.121 |
| RRIRARPPRLPRPRPRPLCNPRP | -0.0439 |
| RRIRSRPPRLPRPRPRPLGEPRP | 0.175 |
| RRIRSRPPRLPRPRPRPIQHPRP | -0.204 |
| RRIRLRPPRLPRPRPRPFVKPRP | -0.225 |
| RRIRDRPPRLPRPRPRPYPWPRP | -0.136 |
| RRIRQRPPRLPRPRPRPHYEPRP | -0.167 |
| RRIRNRPPRLPRPRPRPQGSPRP | -0.0968 |
| RRIRVRPPRLPRPRPRPKPMPRP | 0.131 |
| RRIRTRPPRLPRPRPRPWHPPRP | -0.179 |
| RRIRDRPPRLPRPRPRPWFKPRP | -0.203 |
| RRIRFRPPRLPRPRPRPAIMPRP | -0.225 |
| RRIRMRPPRLPRPRPRPFHGPRP | -0.128 |
| RRIRARPPRLPRPRPRPECWPRP | 1.97 |
| RRIRDRPPRLPRPRPRPITKPRP | 0.283 |
| RRIRYRPPRLPRPRPRPKQDPRP | -0.488 |
| RRIRVRPPRLPRPRPRPRRDPRP | 0.141 |
| RRIRQRPPRLPRPRPRPLNAPRP | 0.0127 |
| RRIRKRPPRLPRPRPRPIWEPRP | 0.295 |
| RRIRWRPPRLPRPRPRPKLRPRP | 0.132 |

| Sequence | shrunken log2 fold change |
| --- | --- |
| RRIRIRPPRLPRPRPRPGKDPRP | 0.00215 |
| RRIRQRPPRLPRPRPRPGGPPRP | 0.0535 |
| RRIRIRPPRLPRPRPRPRCDPRP | -0.0753 |
| RRIRDRPPRLPRPRPRPGECPRP | -0.0602 |
| RRIRVRPPRLPRPRPRPFTRPRP | 0.114 |
| RRIRMRPPRLPRPRPRPGWMPRP | 0.622 |
| RRIRPRPPRLPRPRPRPLQFPRP | -0.178 |
| RRIRTRPPRLPRPRPRPRYFPRP | -0.429 |
| RRIRLRPPRLPRPRPRPAQTPRP | -0.00496 |
| RRIRYRPPRLPRPRPRPPVNPRP | -0.153 |
| RRIRFRPPRLPRPRPRPTIHPRP | 0.865 |
| RRIRWRPPRLPRPRPRPSWIPRP | 0.0261 |
| RRIRDRPPRLPRPRPRPTFIPRP | -0.13 |
| RRIRIRPPRLPRPRPRPRQWPRP | 0.159 |
| RRIRWRPPRLPRPRPRPRPVPRP | 0.728 |
| RRIRWRPPRLPRPRPRPDNNPRP | -0.0431 |
| RRIRRRPPRLPRPRPRPWWAPRP | 0.0813 |
| RRIRHRPPRLPRPRPRPNVMPRP | 0.0213 |
| RRIRSRPPRLPRPRPRPNQYPRP | 0.2 |
| RRIRMRPPRLPRPRPRPPHSPRP | 0.851 |
| RRIRNRPPRLPRPRPRPQNHPRP | -0.685 |
| RRIRSRPPRLPRPRPRPIYHPRP | -0.884 |
| RRIRCRPPRLPRPRPRPYSCPRP | -0.833 |
| RRIRHRPPRLPRPRPRPMTGPRP | -0.218 |
| RRIRFRPPRLPRPRPRPQNMPRP | -0.797 |
